US20050282743A1, “Molecular interactions in cells” (Arbor Vita Corporation, priority 2001, published 2005)

Tests used:
Experiment in all cases: G assay titration, PDZ 5 ug/ml
[1] = biological target: T1, GST-TIP1 PDZ domain 1 (Table 9 insert) (Homo sapiens (Human)), O14907
T1 chain: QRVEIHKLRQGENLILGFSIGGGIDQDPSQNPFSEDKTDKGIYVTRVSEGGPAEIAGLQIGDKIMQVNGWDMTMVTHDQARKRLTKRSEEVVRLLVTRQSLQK

[2] = biological target: T2, GST-FLJ 10324 PDZ domain 1 [GST: P08515]
T2 chain: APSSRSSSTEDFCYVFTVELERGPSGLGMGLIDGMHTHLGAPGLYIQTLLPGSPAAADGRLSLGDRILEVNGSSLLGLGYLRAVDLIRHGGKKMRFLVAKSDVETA

[3] = biological target: T3, GST-Outer Membrane PDZ domain 1 (Homo sapiens (Human)), P57105
T3 chain: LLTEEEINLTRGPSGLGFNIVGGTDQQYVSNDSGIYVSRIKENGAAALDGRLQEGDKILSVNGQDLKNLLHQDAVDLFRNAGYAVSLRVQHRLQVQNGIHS

[4] = biological target: T4, GST-NeDLG PDZ domain 2 (Rattus norvegicus (Rat)), Q62936
T4 chain: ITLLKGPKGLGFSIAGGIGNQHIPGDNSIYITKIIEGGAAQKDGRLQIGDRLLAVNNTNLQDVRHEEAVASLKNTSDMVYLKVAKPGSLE

[5] = biological target: GST-PSD95 PDZ domain 1 (Homo sapiens)
[6] = biological target: GST-KIAA1634 PDZ domain 4 (Homo sapiens (Human)), Q5TCQ9
GST-KIAA1634 PDZ domain 4 (Homo sapiens (Human)), Q5TCQ9, sequence (Q5TCQ9 844-945): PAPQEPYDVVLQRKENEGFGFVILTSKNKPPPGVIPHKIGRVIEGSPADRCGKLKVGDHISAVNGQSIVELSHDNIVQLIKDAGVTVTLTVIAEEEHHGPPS

[7] = biological target: GST-Atrophin-1 Interacting Protein PDZ domain 3 (Rattus norvegicus (Rat)), O88382
GST-Atrophin-1 Interacting Protein PDZ domain 3 (Rattus norvegicus (Rat)), O88382, sequence (O88382 774-865, tags or fused parts left off): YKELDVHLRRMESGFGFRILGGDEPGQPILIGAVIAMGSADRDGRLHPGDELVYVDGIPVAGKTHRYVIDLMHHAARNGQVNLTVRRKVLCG

[8] = biological target: T5, GST-KIAA0807(S) PDZ domain 1 (Homo sapiens (Human)), Q6P0Q8
T5 chain: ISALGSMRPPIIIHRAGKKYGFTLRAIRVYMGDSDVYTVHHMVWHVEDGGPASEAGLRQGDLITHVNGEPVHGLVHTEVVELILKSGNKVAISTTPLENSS

[9] = biological target: T6, GST-MUPP1 PDZ domain 11 (Homo sapiens (Human)), O75970
T6 chain: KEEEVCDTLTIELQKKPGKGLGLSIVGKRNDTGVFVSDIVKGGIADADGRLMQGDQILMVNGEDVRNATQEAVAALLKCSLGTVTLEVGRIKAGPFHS

[10] = biological target: T7, GST-Connector Enhancer PDZ domain 1 (Homo sapiens (Human)), Q969H4
T7 chain: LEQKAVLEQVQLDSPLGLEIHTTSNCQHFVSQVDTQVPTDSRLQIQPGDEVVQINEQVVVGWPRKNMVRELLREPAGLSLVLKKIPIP

[11] = biological target: T8, GST-PTPL1 PDZ domain 2 (Homo sapiens (Human)), Q12923
T8 chain: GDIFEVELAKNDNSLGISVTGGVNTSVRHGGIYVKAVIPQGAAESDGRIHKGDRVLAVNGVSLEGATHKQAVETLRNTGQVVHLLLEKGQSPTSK

[12] = biological target: T9, GST-SYNTENIN PDZ domain 1 (Homo sapiens (Human)), O00560
T9 chain: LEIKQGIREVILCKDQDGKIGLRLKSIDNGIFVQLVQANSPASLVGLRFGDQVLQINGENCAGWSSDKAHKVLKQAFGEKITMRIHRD

[13] = biological target: T10, GST-MINT1 PDZ domain 1 (Mus musculus (Mouse)), B2RUJ5
T10 chain: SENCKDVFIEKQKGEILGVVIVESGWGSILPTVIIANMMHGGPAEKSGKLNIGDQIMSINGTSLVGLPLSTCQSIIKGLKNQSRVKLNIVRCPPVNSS

[14] = biological target: GST-TAX IP2 PDZ domain 1 [GST: P08515]
GST-TAX IP2 PDZ domain 1 [GST: P08515], sequence (P08515 whole entry, the tested form may be a part): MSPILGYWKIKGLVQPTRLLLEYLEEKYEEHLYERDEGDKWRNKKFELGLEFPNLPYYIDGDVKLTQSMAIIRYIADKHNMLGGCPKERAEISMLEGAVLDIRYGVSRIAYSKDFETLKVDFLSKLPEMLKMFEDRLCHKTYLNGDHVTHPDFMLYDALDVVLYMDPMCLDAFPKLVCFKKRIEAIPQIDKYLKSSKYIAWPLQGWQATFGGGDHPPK

[15] = biological target: T11, GST-MINT1 PDZ domains 1, 2, Q02410
T11 chain: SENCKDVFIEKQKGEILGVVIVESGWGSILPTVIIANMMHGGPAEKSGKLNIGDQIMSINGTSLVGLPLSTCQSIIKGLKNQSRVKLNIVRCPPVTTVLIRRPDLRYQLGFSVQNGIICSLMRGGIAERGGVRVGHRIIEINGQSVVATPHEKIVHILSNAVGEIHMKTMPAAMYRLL

[16] = biological target: T12, GST-MINT1 PDZ domain 2 (Mus musculus (Mouse)), B2RUJ5
T12 chain: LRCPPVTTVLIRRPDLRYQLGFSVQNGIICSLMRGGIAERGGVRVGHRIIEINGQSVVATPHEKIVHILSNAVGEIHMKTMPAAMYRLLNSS

[17] = biological target: T13, GST-SITAC-18 PDZ domain 1 (Homo sapiens (Human)), Q9H190
T13 chain: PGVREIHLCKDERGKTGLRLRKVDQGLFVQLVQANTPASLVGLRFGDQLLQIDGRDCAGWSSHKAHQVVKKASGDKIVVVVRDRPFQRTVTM

[18] = biological target: T14, GST-KIAA1526 PDZ domain 1 (Homo sapiens (Human)), Q9P202
T14 chain: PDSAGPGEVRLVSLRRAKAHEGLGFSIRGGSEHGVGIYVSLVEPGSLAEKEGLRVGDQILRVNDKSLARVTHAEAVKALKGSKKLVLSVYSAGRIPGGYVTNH

AWDDSARAAGGQGLHVTAL (modifications not checked) [LPAP]
Kd [1]: 5000 nM

VGTLLLERVIFPSVKIATLV (modifications not checked) [AdenoE4 typ9]
Kd [2]: 100 nM | Kd [3]: 100 nM | Kd [4]: 100 nM | Kd [5]: 100 nM | Kd [6]: 200 nM | Kd [7]: 100 nM | Kd [8]: 200 nM | Kd [9]: 100 nM | Kd [10]: 100 nM | Kd [11]: 200 nM

KTMPAAMYRLLTAQEQPVYI (modifications not checked) [MINT-1]
Kd [12]: 800 nM | Kd [13]: 2000 nM

VPGALDYAAFSSALYGESDL (modifications not checked) [a-actinin 2]
Kd [14]: 2500 nM

PIPAGGCTFSGIFPTLTSPL (modifications not checked) [KIA 1481]
Kd [15]: 800 nM

ILNSIQVMRAQMNQIQSVEV (modifications not checked) [ephrin B2]
Kd [16]: 3000 nM | Kd [17]: 4000 nM | Kd [18]: 5000 nM
